In patent publication US20210388087A1 (Chugai, published 2021):
Numbering of substitutions follows the chain as printed. Names and notes keep the numbering of the source.

B1: CE115HA000 S74A one-arm antibody (antibody, human IgG1, kappa, L234A L235A, N297A, name in Kabat numbering)
heavy: QVQLVESGGGVVQPGRSLRLSCAASGFTFSNAWMHWVRQAPGKGLEWVAQIKAKSNNYATYYAESVKGRFTISRDDAKNSLYLQMNSLKTEDTAVYYCRYVHYGAYYGVDAWGQGTTVTVSSASTKGPSVFPLAPSSKSTSGGTAALGCLVKDYFPEPVTVSWNSGALTSGVHTFPAVLQSSGLYSLSSVVTVPSSSLGTQTYICNVNHKPSNTKVDKKVEPKSCDKTHTCPPCPAPEAAGGPSVFLFPPKPKDTLMISRTPEVTCVVVDVSHEDPEVKFNWYVDGVEVHNAKTKPREEQYASTYRVVSVLTVLHQDWLNGKEYKCKVSNKALPAPIEKTISKAKGQPREPQVYTLPPSRCELTKNQVSLSCAVKGFYPSDIAVEWESNGQPENNYKTTPPVLDSDGSFFLVSKLTVDKSRWQQGNVFSCSVMHEALHNHYTQKSLSLSPDYKDDDDK
chain: EPKSSDKTHTCPPCPAPELLGGPSVFLFPPKPKDTLMISRTPEVTCVVVDVSHEDPEVKFNWYVDGVEVHNAKTKPREEQYNSTYRVVSVLTVLHQDWLNGKEYKCKVSNKALPAPIEKTISKAKGQPREPQVCTLPPSRDELTKNQVSLWCLVKGFYPSDIAVEWESNGQPENNYKTTPPVLDSDGSFFLYSKLTVDKSRWQQGNVFSCSVMHEALHNRYTQKSLSLSP
light: DIVMTQSPLSLPVTPGEPASISCRSSQSLVHSNRNTYLHWYQQKPGQAPRLLIYKVSNRFSGVPDRFSGSGSGTDFTLKISRVEAEDVGVYYCGQGTQVPYTFGQGTKLEIKRTVAAPSVFIFPPSDEQLKSGTASVVCLLNNFYPREAKVQWKVDNALQSGNSQESVTEQDSKDSTYSLSSTLTLSKADYEKHKVYACEVTHQGLSSPVTKSFNRGEC
B2: CE115HA000 S74P one-arm antibody (antibody, human IgG1, kappa, L234A L235A, N297A, name in Kabat numbering)
heavy: B1 heavy with A77P
chain: B1 chain
light: B1 light
B3: CE115HA000 T57K one-arm antibody (antibody, human IgG1, kappa, L234A L235A, N297A, name in Kabat numbering)
heavy: B1 heavy with T60K, A77S
chain: B1 chain
light: B1 light
B4: CE115HA000 T57N one-arm antibody (antibody, human IgG1, kappa, L234A L235A, N297A, name in Kabat numbering)
heavy: B1 heavy with T60N, A77S
chain: B1 chain
light: B1 light
B5: CE115HA000 T57A one-arm antibody (antibody, human IgG1, kappa, L234A L235A, N297A, name in Kabat numbering)
heavy: B1 heavy with T60A, A77S
chain: B1 chain
light: B1 light
B6: CE115HA000 T57I one-arm antibody (antibody, human IgG1, kappa, L234A L235A, N297A, name in Kabat numbering)
heavy: B1 heavy with T60I, A77S
chain: B1 chain
light: B1 light
B7: CE115HA000 V11L one-arm antibody (antibody, human IgG1, kappa, L234A L235A, N297A, name in Kabat numbering)
heavy: B1 heavy with V11L, A77S
chain: B1 chain
light: B1 light
B8: CE115HA000 T28D one-arm antibody (antibody, human IgG1, kappa, L234A L235A, N297A, name in Kabat numbering)
heavy: B1 heavy with T28D, A77S
chain: B1 chain
light: B1 light
B9: CE115HA000 S77T one-arm antibody (antibody, human IgG1, kappa, L234A L235A, N297A, name in Kabat numbering)
heavy: B1 heavy with A77S, S80T
chain: B1 chain
light: B1 light
B10: CE115HA000 T28S one-arm antibody (antibody, human IgG1, kappa, L234A L235A, N297A, name in Kabat numbering)
heavy: B1 heavy with T28S, A77S
chain: B1 chain
light: B1 light

Each binder was assayed against T1, CD3 epsilon homodimer protein (UniProt P07766 23-126) (assay: SPR (Biacore T200), CD3 epsilon homodimer on CM4 chip, one-arm antibody as analyte, 25 C;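 also: homodimer attached to the sensor surface via amine coupling, HBS-EP+ used as running buffer during binding runs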).
T1 construct: immobilized on Sensor chip CM4 by amine coupling; also called CD3 (CD3 epsilon)
T1 sequence (P07766 23-126): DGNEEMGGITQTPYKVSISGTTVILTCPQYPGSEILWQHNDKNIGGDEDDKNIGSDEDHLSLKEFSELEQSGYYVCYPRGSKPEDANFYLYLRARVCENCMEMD
Procedure: An appropriate amount of CD3 epsilon homodimer protein was immobilized onto Sensor chip CM4 (GE Healthcare Japan Corp.) by the amine coupling method. Then, the antibody having an appropriate concentration was injected thereto as an analyte and allowed to interact with the CD3 epsilon homodimer protein on the sensor chip. Then, the sensor chip was regenerated by the injection of 10 mmol/L glycine-HCl (pH 1.5). The assay was conducted at 25 degrees C., and HBS-EP+(GE Healthcare Japan Corp.) was used as a running buffer. […] Each parameter was calculated using Biacore T200 Evaluation Software (GE Healthcare Japan Corp.).

Compared with B1, B2 is lower in “ratio of amounts bound (altered form / CE115HA000)” value: 1.05 for the first, 0.91 for the second.

Going from B3 to B4, the “ratio of amounts bound (altered form / CE115HA000)” value falls from 1.32 to 0.97.

First: B5
Second: B6
The “ratio of amounts bound (altered form / CE115HA000)” value of the first is higher: 0.98 for the first, 0.61 for the second.

Compared with B7, B8 is lower in “ratio of amounts bound (altered form / CE115HA000)” value: 1 for the first, 0.56 for the second.

First: B9
Second: B10
The “ratio of amounts bound (altered form / CE115HA000)” value of the first is lower: 0.9 for the first, 0.91 for the second.
